{
  "source": "patent US20150376237A1",
  "about": "“POLYPEPTIDES FOR BLOOD BRAIN BARRIER TRANSPORT” (SAGETIS BIOTECH, SL, priority 2012, published 2015)",
  "tested_on": "in vitro BBB model (bovine brain endothelial cells co-cultured with mouse mixed glial cells)",
  "assay": "Fluorescently-labelled peptide in vitro BBB model crossing test",
  "settings": "fluorescent peptide, 20 μg/ml fluorophore in DMEM/F12, 60 min at 37° C.",
  "protocol": "Mouse primary cultures of mixed glial cells are seeded on a 24-well plate and bovine brain endothelial cells are cultured on collagen-coated inserts in another plate. After three days, the inserts are moved into astrocyte-containing plates and cultured for a further three days. To assess the integrity of the in vitro BBB, trans-endothelial electrical resistance (TEER) is measured on the day of the experiment. TEER values higher than 200Ω/cm^2 are considered acceptable.\nPeptides are applied at 20 μg/ml of fluorophore in the luminal side of the inserts and placed in wells filled with Ringer-Hepes buffer (the composition of Ringer-Hepes buffer is described above). After 1 h incubation, samples from the upper and lower compartments are collected and measured using a fluorimeter. […]\nAll samples (t=0 up, t=0 down, t=60 up and t=60 down) from each condition (testing peptides and negative control) are plated in black 96-well microplates as well as the corresponding standard curves. Fluorescence is measured using a multi-well plate reader. […]\nThe endothelial permeability coefficient values for LY and the tested peptide are also determined. […] The increment in cleared volume between the incubation times is calculated by dividing the amount of transported compound by the donor chamber concentration and calculating the total volume cleared, as shown below: […]",
  "data": [
    {"substance": "SEQ ID NO: 12: GDAAAAKAAKAAAKAAADGY, rigid polypeptide, single domain binder (Rigid_1)", "values": [
      {"measurement": "Percentage BBB crossing", "result": "Percentage BBB crossing: 7.51%"}
    ]}
  ]
}
